PMC6006248, “CARK1 mediates ABA signaling by phosphorylation of ABA receptors” (Cell Discovery, 2018)

B1: ABI1 (Clade A PP2C) (enzyme)
chain: MEEVSPAIAGPFRPFSETQMDFTGIRLGKGYCNNQYSNQDSENGDLMVSLPETSSCSVSGSHGSESRKVLISRINSPNLNMKESAAADIVVVDISAGDEINGSDITSEKKMISRTESRSLFEFKSVPLYGFTSICGRRPEMEDAVSTIPRFLQSSSGSMLDGRFDPQSAAHFFGVYDGHGGSQVANYCRERMHLALAEEIAKEKPMLCDGDTWLEKWKKALFNSFLRVDSEIESVAPETVGSTSVVAVVFPSHIFVANCGDSRAVLCRGKTALPLSVDHKPDREDEAARIEAAGGKVIQWNGARVFGVLAMSRSIGDRYLKPSIIPDPEVTAVKRVKEDDCLILASDGVWDVMTDEEACEMARKRILLWHKKNAVAGDASLLADERRKEGKDPAAMSAAEYLSKLAIQRGSKDNISVVVVDLKPRRKLKSKPLN

Experiments:
[1] = target: T1, CARK1-KD (Arabidopsis thaliana, UniProt Q9LUT0); assay: in vitro kinase assay, […] autoradiography; assay type: biochemical; settings: labelled compound; autophosphorylation and phosphorylation of RCAR3/RCAR11
T1 construct: kinase domain, residues 50-353, 6xHis fusion (pET28a), E. coli Rosetta (DE3)
T1 sequence (Q9LUT0 50-353): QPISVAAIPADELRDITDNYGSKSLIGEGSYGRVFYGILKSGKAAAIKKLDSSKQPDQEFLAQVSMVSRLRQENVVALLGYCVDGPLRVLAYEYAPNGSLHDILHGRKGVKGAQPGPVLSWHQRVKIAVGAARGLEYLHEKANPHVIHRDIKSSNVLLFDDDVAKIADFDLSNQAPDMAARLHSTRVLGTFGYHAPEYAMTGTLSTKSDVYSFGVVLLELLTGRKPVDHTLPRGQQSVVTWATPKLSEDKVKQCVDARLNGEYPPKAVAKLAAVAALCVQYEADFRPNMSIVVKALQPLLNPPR

[2] = target: ABI1 (Clade A PP2C) (Arabidopsis) (UniProt P49597)
[3] = target: T2, RCAR11 (PYR1) with ABI1 (Arabidopsis thaliana, UniProt O49686); assay: in vitro Ser/Thr phosphatase assay of ABI1; assay type: biochemical; settings: read-out is receptor-dependent inhibition of ABI1
T2 construct: recombinant receptor plus ABI1 phosphatase; tags and borders for this assay only in supplement; receptor dimeric; with Protein phosphatase 2C 56
T2 sequence (O49686 1-191): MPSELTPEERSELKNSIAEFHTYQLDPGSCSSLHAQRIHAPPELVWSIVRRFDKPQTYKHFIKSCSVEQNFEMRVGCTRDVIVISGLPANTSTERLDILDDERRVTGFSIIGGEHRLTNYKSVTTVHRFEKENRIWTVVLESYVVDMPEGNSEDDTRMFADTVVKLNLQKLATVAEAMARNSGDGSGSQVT
T2 sequence (P49597 1-434 partner): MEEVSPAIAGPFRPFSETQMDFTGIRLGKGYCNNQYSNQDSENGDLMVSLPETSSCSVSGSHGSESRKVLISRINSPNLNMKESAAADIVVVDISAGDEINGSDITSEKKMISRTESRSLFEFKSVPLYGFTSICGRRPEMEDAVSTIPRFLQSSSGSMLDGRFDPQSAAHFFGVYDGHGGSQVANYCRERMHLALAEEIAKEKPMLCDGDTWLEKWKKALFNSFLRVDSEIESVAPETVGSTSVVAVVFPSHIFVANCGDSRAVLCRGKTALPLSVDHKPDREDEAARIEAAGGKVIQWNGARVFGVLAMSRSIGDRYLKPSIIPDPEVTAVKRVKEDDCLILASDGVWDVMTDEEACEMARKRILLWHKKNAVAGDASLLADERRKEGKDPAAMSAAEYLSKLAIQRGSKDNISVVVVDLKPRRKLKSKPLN

[4] = target: T3, RCAR3 (PYL8) with ABI1 (Arabidopsis thaliana, UniProt Q9FGM1); assay: in vitro Ser/Thr phosphatase assay of ABI1; assay type: biochemical; settings: read-out is receptor-dependent inhibition of ABI1
T3 construct: recombinant receptor plus ABI1 phosphatase; tags and borders for this assay only in supplement; receptor monomeric; with Protein phosphatase 2C 56
T3 sequence (Q9FGM1 1-188): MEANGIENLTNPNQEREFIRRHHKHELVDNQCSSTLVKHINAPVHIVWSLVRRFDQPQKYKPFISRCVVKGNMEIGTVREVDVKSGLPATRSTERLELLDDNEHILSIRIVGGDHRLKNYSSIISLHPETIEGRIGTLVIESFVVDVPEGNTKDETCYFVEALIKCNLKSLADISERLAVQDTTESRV
T3 sequence (P49597 1-434 partner): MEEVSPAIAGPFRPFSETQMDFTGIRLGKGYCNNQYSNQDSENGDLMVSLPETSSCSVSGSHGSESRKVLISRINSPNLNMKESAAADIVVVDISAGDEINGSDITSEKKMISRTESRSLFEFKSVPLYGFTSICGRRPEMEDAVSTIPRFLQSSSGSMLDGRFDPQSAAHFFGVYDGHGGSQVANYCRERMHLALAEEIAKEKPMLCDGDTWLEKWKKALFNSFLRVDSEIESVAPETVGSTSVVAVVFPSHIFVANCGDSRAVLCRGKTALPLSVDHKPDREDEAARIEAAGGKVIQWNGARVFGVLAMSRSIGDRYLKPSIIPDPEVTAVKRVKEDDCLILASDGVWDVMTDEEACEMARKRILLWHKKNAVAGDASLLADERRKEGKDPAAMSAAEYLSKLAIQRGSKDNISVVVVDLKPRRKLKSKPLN

[5] = target: T4, RCAR3^S85R (interface point mutant) (Arabidopsis, UniProt Q9FGM1 1-188, S85R); assay: SPR
T4 sequence: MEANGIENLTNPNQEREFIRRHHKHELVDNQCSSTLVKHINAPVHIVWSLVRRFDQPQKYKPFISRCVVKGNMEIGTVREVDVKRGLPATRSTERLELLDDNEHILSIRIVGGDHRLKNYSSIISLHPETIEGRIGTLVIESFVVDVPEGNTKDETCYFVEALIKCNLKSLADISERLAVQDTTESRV

[6] = target: T5, RCAR3^T77A (Arabidopsis, UniProt Q9FGM1 1-188, T77A); assay: SPR
T5 sequence: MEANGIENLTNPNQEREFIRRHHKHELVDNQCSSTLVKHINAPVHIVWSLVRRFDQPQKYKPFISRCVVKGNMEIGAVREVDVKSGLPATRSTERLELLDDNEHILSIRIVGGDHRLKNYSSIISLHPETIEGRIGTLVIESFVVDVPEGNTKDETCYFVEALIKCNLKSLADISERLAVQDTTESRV

[7] = target: T6, RCAR3^T77D (phosphor-mimic form of RCAR3) (Arabidopsis, UniProt Q9FGM1 1-188, T77D); assay: SPR
T6 sequence: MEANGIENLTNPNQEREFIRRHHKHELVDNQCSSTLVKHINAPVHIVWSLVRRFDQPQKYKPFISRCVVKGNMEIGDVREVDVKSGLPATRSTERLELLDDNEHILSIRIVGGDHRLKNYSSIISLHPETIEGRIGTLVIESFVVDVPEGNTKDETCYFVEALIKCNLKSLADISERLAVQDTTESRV

[8] = target: T7, ABI1 (Clade A PP2C) (Arabidopsis, UniProt P49597 1-434); assay: SPR; in vitro; who was immobilised and the conditions are not told in the main text (Supplementary Fig. S7A-E); settings: both partners purified
T7 construct: Protein phosphatase 2C ABI1, Arabidopsis; source: purified with the similar procedures as described for CARK1-KD
T7 sequence (looked up): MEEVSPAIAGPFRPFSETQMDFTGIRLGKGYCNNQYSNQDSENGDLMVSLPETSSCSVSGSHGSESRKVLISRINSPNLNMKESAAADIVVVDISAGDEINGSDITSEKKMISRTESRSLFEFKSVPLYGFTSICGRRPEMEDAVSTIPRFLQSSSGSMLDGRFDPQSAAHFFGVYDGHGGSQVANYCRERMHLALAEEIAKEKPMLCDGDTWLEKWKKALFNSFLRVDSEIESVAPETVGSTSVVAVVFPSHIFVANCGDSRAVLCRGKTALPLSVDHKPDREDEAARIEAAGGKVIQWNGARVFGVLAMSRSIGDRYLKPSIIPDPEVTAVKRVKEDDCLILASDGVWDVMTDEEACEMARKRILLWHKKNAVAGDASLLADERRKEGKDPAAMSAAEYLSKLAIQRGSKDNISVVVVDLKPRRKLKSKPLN

[9] = target: B1; assay: SPR
[10] = target: T8, His-tagged CARK1-KD (kinase domain of CARK1, residues 50-353) (Arabidopsis, UniProt Q9LUT0 50-353); assay: pull-down; GST pull-down; His-tagged CARK1-KD or CARK1-KD^N204A (50, 100 and 200 μg) incubated with 100 μg of GST-tagged RCAR3 or RCAR11; SDS-PAGE and immunoblot; settings: both partners purified
T8 construct: CARK1 (At3g17410), Arabidopsis, kinase domain, residues 50-353; Cloned into pET28a for the pull-down; details of the purification are in the Supplementary Information; source: E. coli Rosetta (DE3), purified
T8 sequence (looked up): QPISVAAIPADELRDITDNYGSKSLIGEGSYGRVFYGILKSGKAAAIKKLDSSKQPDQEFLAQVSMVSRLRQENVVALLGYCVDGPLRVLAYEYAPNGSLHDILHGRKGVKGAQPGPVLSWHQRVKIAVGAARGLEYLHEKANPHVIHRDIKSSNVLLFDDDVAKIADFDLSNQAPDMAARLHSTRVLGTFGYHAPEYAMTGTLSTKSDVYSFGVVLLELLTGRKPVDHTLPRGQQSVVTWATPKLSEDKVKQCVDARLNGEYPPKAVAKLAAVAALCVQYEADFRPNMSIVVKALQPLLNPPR

Nc1ncnc2c1ncn2[C@@H]1O[C@H](COP(=O)(O)OP(=O)(O)OP(=O)(O)O)[C@@H](O)[C@H]1O [ATP]
in vitro kinase assay, 32P autoradiography [1]: wild-type CARK1-KD showed strong autophosphorylation activity

RCAR11^T78D (phosphor-mimic form of RCAR11) (from UniProt O49686 1-191) (receptor)
phosphatase activity of ABI1 in vitro, without ABA: inhibitory effect [2]: 28%

CC1=CC(=O)CC(C)(C)[C@@]1(O)/C=C/C(C)=C\C(=O)O [ABA]
in vitro Ser/Thr phosphatase assay of ABI1 [3]: phosphatase activity of ABI1 was totally abolished by either forms of RCAR3/RCAR11 | in vitro Ser/Thr phosphatase assay of ABI1 [4]: phosphatase activity of ABI1 was totally abolished by either forms of RCAR3/RCAR11

B1
koff [5]: 0.00676 s⁻¹ | koff [6]: 0.0046 s⁻¹ | koff [7]: 0.000867 s⁻¹

B2: wild-type RCAR3 (purified, SPR and phosphatase assay) (receptor, Arabidopsis, UniProt Q9FGM1 1-188, looked up)
chain: MEANGIENLTNPNQEREFIRRHHKHELVDNQCSSTLVKHINAPVHIVWSLVRRFDQPQKYKPFISRCVVKGNMEIGTVREVDVKSGLPATRSTERLELLDDNEHILSIRIVGGDHRLKNYSSIISLHPETIEGRIGTLVIESFVVDVPEGNTKDETCYFVEALIKCNLKSLADISERLAVQDTTESRV
notes: ABA receptor RCAR3 (PYL8), Arabidopsis; a His-tagged RCAR3 is named for the in-gel kinase assay; also called PYL8; source: purified with the similar procedures as described for CARK1-KD
Kd [8]: 0.88 µM | koff [9]: 0.000822 s⁻¹

B3: RCAR3^T77D (phosphor-mimic form of RCAR3) (receptor, Arabidopsis, UniProt Q9FGM1 1-188, looked up)
chain: MEANGIENLTNPNQEREFIRRHHKHELVDNQCSSTLVKHINAPVHIVWSLVRRFDQPQKYKPFISRCVVKGNMEIGDVREVDVKSGLPATRSTERLELLDDNEHILSIRIVGGDHRLKNYSSIISLHPETIEGRIGTLVIESFVVDVPEGNTKDETCYFVEALIKCNLKSLADISERLAVQDTTESRV
notes: ABA receptor RCAR3 (PYL8), Arabidopsis, with T77D; source: purified with the similar procedures as described for CARK1-KD
Kd [8]: ~0.2 µM

B4: GST-tagged RCAR11 (receptor, Arabidopsis, UniProt O49686 1-191, looked up)
chain: MPSELTPEERSELKNSIAEFHTYQLDPGSCSSLHAQRIHAPPELVWSIVRRFDKPQTYKHFIKSCSVEQNFEMRVGCTRDVIVISGLPANTSTERLDILDDERRVTGFSIIGGEHRLTNYKSVTTVHRFEKENRIWTVVLESYVVDMPEGNSEDDTRMFADTVVKLNLQKLATVAEAMARNSGDGSGSQVT
notes: ABA receptor RCAR11 (PYR1), Arabidopsis, cDNA cloned into pGEX-6P-1; Details are in the Supplementary Information; also called PYR1; source: E. coli, purified (similar procedures as for CARK1-KD)
binding result [10]: binds

B5: RCAR3^S85R (interface point mutant) (receptor, Arabidopsis, UniProt Q9FGM1 1-188, looked up)
chain: MEANGIENLTNPNQEREFIRRHHKHELVDNQCSSTLVKHINAPVHIVWSLVRRFDQPQKYKPFISRCVVKGNMEIGTVREVDVKRGLPATRSTERLELLDDNEHILSIRIVGGDHRLKNYSSIISLHPETIEGRIGTLVIESFVVDVPEGNTKDETCYFVEALIKCNLKSLADISERLAVQDTTESRV
notes: ABA receptor RCAR3 (PYL8), Arabidopsis, with S85R; source: purified with the similar procedures as described for CARK1-KD
Kd [8]: 11.3 µM

B6: GST-tagged RCAR3 (receptor, Arabidopsis, UniProt Q9FGM1 1-188, looked up)
chain: MEANGIENLTNPNQEREFIRRHHKHELVDNQCSSTLVKHINAPVHIVWSLVRRFDQPQKYKPFISRCVVKGNMEIGTVREVDVKSGLPATRSTERLELLDDNEHILSIRIVGGDHRLKNYSSIISLHPETIEGRIGTLVIESFVVDVPEGNTKDETCYFVEALIKCNLKSLADISERLAVQDTTESRV
notes: ABA receptor RCAR3 (PYL8), Arabidopsis, cDNA cloned into pGEX-6P-1; Details are in the Supplementary Information; also called PYL8; source: E. coli, purified (similar procedures as for CARK1-KD)
binding result [10]: binds

B7: RCAR3^T77A (receptor, Arabidopsis, UniProt Q9FGM1 1-188, looked up)
chain: MEANGIENLTNPNQEREFIRRHHKHELVDNQCSSTLVKHINAPVHIVWSLVRRFDQPQKYKPFISRCVVKGNMEIGAVREVDVKSGLPATRSTERLELLDDNEHILSIRIVGGDHRLKNYSSIISLHPETIEGRIGTLVIESFVVDVPEGNTKDETCYFVEALIKCNLKSLADISERLAVQDTTESRV
notes: ABA receptor RCAR3 (PYL8), Arabidopsis, with T77A; source: purified with the similar procedures as described for CARK1-KD
Kd [8]: ~6.4 µM
